Experimental data reported in doi:10.1101/2021.09.29.462438.

Target: N-terminal soluble domain of Bacteroides fragilis FeoAB fusion protein (BfNFeoAB) (Bacteroides fragilis)
Test: SEC

stoichiometry N: 3
Substance: N-terminal soluble domain of Bacteroides fragilis FeoAB fusion protein (BfNFeoAB) (domain or fragment)
